Literature values, collected in publication PMC7340539.
pKd: −log10 of the molar value.

Molecular target: CD47 (Homo sapiens) (UniProt Q08722)
Chain of UniProt Q08722 (Q08722 19-323): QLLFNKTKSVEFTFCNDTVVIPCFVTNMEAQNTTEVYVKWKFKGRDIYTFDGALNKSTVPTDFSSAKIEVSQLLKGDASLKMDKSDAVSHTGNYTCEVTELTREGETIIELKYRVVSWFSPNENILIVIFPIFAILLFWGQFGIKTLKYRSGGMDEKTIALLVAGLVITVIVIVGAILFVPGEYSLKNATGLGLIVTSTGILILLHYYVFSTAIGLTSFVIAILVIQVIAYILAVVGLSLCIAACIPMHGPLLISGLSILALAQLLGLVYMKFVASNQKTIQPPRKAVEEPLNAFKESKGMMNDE

Q: With SIRPα ECD (from UniProt P78324) as the substance, how does the pKd read?
A: 5.70
